Values quoted from earlier work as cited in patent US20080125354A1, “SELECTIVE INHIBITION OF MATRIX METALLOPROTEINASES” (Florida Atlantic University, priority 2005, published 2008).

Experiments:
MMP-2 [1] = biological target: T1, MMP-2 (Homo sapiens, UniProt P08253); details: MMP-2, earlier study
T1 sequence (P08253 110-660): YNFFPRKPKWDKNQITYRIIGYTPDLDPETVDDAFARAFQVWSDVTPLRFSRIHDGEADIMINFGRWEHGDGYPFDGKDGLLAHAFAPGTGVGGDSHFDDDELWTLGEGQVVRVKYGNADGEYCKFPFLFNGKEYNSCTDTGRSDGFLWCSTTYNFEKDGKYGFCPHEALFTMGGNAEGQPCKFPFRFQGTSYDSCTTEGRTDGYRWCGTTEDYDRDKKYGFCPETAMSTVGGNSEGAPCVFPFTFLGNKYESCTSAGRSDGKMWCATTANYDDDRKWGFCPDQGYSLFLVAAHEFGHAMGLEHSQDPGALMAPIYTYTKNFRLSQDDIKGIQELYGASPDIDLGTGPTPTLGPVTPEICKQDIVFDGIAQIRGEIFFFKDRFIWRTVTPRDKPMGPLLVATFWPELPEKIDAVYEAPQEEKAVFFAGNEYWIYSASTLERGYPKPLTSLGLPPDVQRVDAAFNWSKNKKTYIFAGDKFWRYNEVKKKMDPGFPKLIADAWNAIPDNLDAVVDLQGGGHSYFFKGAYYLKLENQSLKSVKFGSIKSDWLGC

MMP-9 = MMP-9 (Homo sapiens, UniProt P14780); details: 30° C., 40 nM enzyme, 40 μM substrate
MMP-1 [2] = biological target: T2, MMP-1 (Homo sapiens, UniProt P03956); details: 30° C., 40 nM enzyme, 40 μM substrate
T2 construct: made in house
T2 sequence (P03956 100-469): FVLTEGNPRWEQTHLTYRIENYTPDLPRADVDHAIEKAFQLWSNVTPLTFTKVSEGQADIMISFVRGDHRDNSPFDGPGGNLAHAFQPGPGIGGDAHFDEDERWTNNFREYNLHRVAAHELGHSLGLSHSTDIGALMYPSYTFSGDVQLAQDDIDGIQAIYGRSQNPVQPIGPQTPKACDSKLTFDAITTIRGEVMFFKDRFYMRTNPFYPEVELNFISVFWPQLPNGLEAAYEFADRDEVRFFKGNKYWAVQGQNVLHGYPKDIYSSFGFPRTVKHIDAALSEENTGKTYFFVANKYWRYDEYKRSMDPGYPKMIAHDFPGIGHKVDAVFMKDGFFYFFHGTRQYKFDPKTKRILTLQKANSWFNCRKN

MMP-1 [3] = biological target: T2, MMP-1; details: MMP-1, second earlier study
MMP-2 [4] = biological target: T1, MMP-2; details: 30° C., 40 nM enzyme, 40 μM substrate
MMP-3 = biological target: T3, MMP-3 (Homo sapiens, UniProt P08254); details: 30° C., 40 nM enzyme, 40 μM substrate
T3 construct: made in house

MMP-8 = biological target: T4, MMP-8 (Homo sapiens, UniProt P22894); details: 30° C., 40 nM enzyme, 40 μM substrate
T4 construct: made in house; host or cells: CHO-K1 cells

MMP-13 = biological target: T5, MMP-13 (Homo sapiens, UniProt P45452); details: 30° C., 40 nM enzyme, 40 μM substrate
T5 construct: purchased R&D Systems (Minneapolis, Minn.)

MMP-14 = MMP-14 (Homo sapiens, UniProt P50281); details: 30° C., 40 nM enzyme, 40 μM substrate

T3 sequence (P08254 100-477, species assumed): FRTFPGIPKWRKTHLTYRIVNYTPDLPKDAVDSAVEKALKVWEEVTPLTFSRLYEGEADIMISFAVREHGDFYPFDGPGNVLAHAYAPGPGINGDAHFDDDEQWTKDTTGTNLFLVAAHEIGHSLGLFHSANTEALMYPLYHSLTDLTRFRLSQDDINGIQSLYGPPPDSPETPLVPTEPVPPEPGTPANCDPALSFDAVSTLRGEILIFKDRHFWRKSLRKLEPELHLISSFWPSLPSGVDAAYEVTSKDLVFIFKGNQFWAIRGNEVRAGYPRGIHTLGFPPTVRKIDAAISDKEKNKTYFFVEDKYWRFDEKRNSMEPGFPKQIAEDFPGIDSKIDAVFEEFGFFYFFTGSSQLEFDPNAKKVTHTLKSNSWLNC
T4 sequence (P22894 101-467, species assumed): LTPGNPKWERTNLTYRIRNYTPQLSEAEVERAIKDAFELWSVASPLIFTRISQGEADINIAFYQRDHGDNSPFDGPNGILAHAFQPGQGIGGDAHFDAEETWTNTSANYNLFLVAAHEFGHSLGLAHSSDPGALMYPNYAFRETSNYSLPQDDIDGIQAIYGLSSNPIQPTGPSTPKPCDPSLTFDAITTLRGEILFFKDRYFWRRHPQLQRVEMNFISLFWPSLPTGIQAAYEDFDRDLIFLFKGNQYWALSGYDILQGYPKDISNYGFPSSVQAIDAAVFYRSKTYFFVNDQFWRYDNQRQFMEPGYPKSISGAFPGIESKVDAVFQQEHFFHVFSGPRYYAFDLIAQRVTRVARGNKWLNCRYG
Sequence of MMP-9 (P14780 94-707): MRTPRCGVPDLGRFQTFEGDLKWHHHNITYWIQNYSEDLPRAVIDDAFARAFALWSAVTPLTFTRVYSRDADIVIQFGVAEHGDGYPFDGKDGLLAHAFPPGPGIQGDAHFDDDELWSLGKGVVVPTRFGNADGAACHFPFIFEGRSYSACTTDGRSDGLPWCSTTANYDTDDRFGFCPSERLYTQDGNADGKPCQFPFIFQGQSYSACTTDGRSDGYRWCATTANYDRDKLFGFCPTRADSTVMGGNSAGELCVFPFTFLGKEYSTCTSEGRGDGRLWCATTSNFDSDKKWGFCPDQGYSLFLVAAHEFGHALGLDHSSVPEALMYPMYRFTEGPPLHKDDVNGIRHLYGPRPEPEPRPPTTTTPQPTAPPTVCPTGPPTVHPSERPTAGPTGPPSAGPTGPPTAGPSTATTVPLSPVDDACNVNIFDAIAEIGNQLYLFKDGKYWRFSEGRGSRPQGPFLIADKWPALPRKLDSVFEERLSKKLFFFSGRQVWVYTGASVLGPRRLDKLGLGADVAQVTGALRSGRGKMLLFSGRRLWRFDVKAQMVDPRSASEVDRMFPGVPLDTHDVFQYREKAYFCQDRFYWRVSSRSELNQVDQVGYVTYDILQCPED

(Pro-Pro-Gly)6-NHOH
IC50 (MMP-2 [1]): 160 µM

C6-(Gly-Pro-Hyp)4-Gly-Pro-Pro-Gly˜Val-Val-Gly-Glu-Gln-Gly-Glu-Gln-Gly-Pro-Pro-(Gly-Pro-Hyp)4-NH2 [SEQ ID NO: 5]
time to hydrolysis of the substrate by MMP-9 (MMP-9): ≤ 1 h | hydrolysis of the substrate by MMP-1 (in words) (MMP-1 [2]): did not cleave the substrate even after 24 h

hydroxamate-containing peptidomimetic onto the N-terminus of (Gly-Pro-Hyp)-4-Gly-Pro-Pro-Gly-Ser-Ser [C-terminally branched construct of a second earlier study carrying a hydroxamate-containing peptidomimetic]
IC50 (MMP-1 [3]): ~0.009 µM

(Gly-Pro-Hyp)5-Gly-Pro-Gln-Gly˜Leu-Ala-Gly-Gln-Arg-Gly-Ile-Arg-(Gly-Pro-Hyp)5-NH2 [SEQ ID NO: 6]
hydrolysis of the substrate by MMP-1 (in words) (MMP-1 [2]): hydrolyzed the substrate efficiently | hydrolysis of the substrate by MMP-2 (in words) (MMP-2 [4]): hydrolyzed the substrate efficiently | hydrolysis of the substrate by MMP-3 (in words) (MMP-3): did not | hydrolysis of the substrate by MMP-8 (in words) (MMP-8): hydrolyzed the substrate efficiently | hydrolysis of the substrate by MMP-13 (in words) (MMP-13): hydrolyzed the substrate efficiently | hydrolysis of the substrate by MMP-14 (in words) (MMP-14): hydrolyzed the substrate efficiently

(Pro-Pro-Gly)12-NHOH
IC50 (MMP-2 [1]): 90 µM
